Data as given in patent US20090208440.
Numbering of substitutions follows the chain as printed.

What was measured:
[1] = biological target: peptide with the desired target sequence of TNF-alpha
substrate A = biological target: T1, substrate A
T1 chain: LLWLGRVVGGPV

substrate B = biological target: T2, substrate B
T2 chain: KKWLGRVPGGPV

[2] = biological target: proteins from human blood serum

Chain of human TNF-alpha (chain, as listed by the source): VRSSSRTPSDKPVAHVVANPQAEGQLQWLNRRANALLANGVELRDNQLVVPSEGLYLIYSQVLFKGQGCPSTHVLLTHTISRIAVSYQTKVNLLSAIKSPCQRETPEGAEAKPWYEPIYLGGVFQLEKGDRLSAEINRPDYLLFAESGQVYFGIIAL

B1: variant f (protein)
chain: IVGGYNCEENSVPYQVSLNSGYHFCGGSLINEQWVVSAGHCYAAFNGDKSRIQVRLGEHNIEVLEGNEQFINAAKIIRHPQYDRKTLNNDIMLIKLSSRAVINARVSTISLPTAPPATGTKCLISGWGNRKDFWTASSGADYPDELQCLDAPVLSQAKCEASYPGKITSNMFCVGFLEGGKDSCQGDSGGPVVCNGQLQGVVSWGDGCAQKNKPGVYTKVYNYVKWIKNTIAANS
B1 was tested, and the k with comp./k without comp. [1] was 0.487.

B2: Variant 3 (protein)
chain: B1 chain with F45T
B2 was tested, and the “rate constants of proteolytic digestion (proportional to kcat/KM), relative to human trypsin I” value (from here on “rate constants … relative to human trypsin I”) (substrate A) was “serves as a negative control with similar activities as the human trypsin I” and the “rate constants … relative to human trypsin I” value (substrate B) was “serves as a negative control with similar activities as the human trypsin I”.

B3: Variant 2 (protein)
chain: B1 chain with A43N, A44G, F45R, N46D, G47L, D48E, R130V, K131R, D132G, F133T
In the case of B3, the “rate constants … relative to human trypsin I” value (substrate B) is reported as “the specific activity of variants 1 and 2 is shifted (SEQ ID NOs: 2 and 3, respectively) towards substrate B”.

B4: variant x (protein)
chain: IVGGYNCEENSVPYQVSLNSGYHFCGGSLINEQWVVSAGHCYAAFNGKSRIQVRLGEHNIGVLEGNEQFINAAKIIRHPQYDWKTLNNDIMLIKLSSRAVINARVSTISLPTAPPATGTKCLISGWGNRKDFWTASSGADFPDELQCLDAPVLSQTKCEASYPGKITSNMFCVGFLEGGKDSCQGDSGGPVVRNGQLQGVVSWGDGCAQKNKPGVYTKVYNYVKWIKNTIAANS
For B4, the “remaining intact protein as a function of time (proteolytic digestion)” value (human TNF-alpha) was “the variants as well as human trypsin I digest human TNF-alpha” and the “remaining intact protein as a function of time (proteolytic digestion)” value [2] was “only trypsin shows activity on serum protein”.

B5: variant a (protein)
chain: IVGGYNCEENSVPYQVSLNSGYHFCGGSLINEQWVVSAGHCYRPWDPSKSRIQVRLGEHNIEVLEGNEQFINAAKIIRHPQYDRKTLNNDIMLIKLSSRAVINARVSTISLPTAPPATGTKCLISGWGNVHPTSTASSGADYPDELQCLDAPVLSQAKCEASYPGKITSNMFCVGFLEGGKDSCQGDSGGPVVCNGQLQGVVSWGDGCAQKNKPGVYTKVYNYVKWIKNTIAANS
For B5, the k with comp./k without comp. [1] was 0.13.

B6: variant e (protein)
chain: IVGGYNCEENSVPYQVSLNSGYHFCGGSLINEQWVVSAGHCYVNIMAAKSRIQVRLGEHNIEVLEGNEQFINAAKIIRHPQYDRKTLNNDIMLIKLSSRAVINARVSTISLPTAPPATGTKCLISGWGNTTARKTASSGADYPDELQCLDAPVLSQAKCEASYPGKITSNMFCVGFLEGGKDSCQGDSGGPVVCNGQLQGVVSWGDGCAQKNKPGVYTKVYNYVKWIKNTIAANS
Work on B6 yielded a k with comp./k without comp. [1] of 0.374.

B7: variant d (protein)
chain: B1 chain with A43K, F45V, N46V, D48T, K131T, D132P, F133I, W134S
B7 was tested, and the k with comp./k without comp. [1] was 0.31.

B8: variant b (protein)
chain: B1 chain with A43G, A44F, F45V, N46M, G47F, D48N, K131S, D132P, F133L, W134T
With B8 the k with comp./k without comp. [1] was 0.187.

B9: Variant 1 (protein)
chain: B1 chain with A43D, F45V, N46G, G47R, R130T, K131I, D132T, F133N, W134S
For B9, the “rate constants … relative to human trypsin I” value (substrate B) was “the specific activity of variants 1 and 2 is shifted (SEQ ID NOs: 2 and 3, respectively) towards substrate B”.

B10: variant c (protein)
chain: B1 chain with A43E, A44I, F45A, G47R, D48E, K131G, D132A, F133R, W134T
B10 gave a k with comp./k without comp. [1] of 0.235.
